Source: the supplement of paper PMC9112550, “Optimization of the antimicrobial peptide Bac7 by deep mutational scanning” (BMC Biology, 2022)

Each sequence was assayed on Escherichia coli TOP10 (assay: shrunken log2 fold change of peptide-encoding DNA abundance (4.5 h post-induction vs induction); higher = less antimicrobial activity (less host growth inhibition)). Settings: time post-induction: 4.5 h; library: site-saturation at positions 5, 18, 19, 20.
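Further: peptides expressed intracellularly from a pBAD plasmid library in pooled LB shake-flask culture, induced with 0.3% L-arabinose, DNA abundance read by NGS, three biological replicates, DESeq2 with apeglm shrinkage.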

Compared with RRIRNRPPRLPRPRPRPNEYPRP, RRIRMRPPRLPRPRPRPPPDPRP is higher in “shrunken log2 fold change” value: -0.312 for the first, 1.9 for the second.

Compared with RRIRPRPPRLPRPRPRPMQMPRP, RRIRERPPRLPRPRPRPVVWPRP is higher in “shrunken log2 fold change” value: 0.00304 for the first, 0.33 for the second.

First: RRIRKRPPRLPRPRPRPQKCPRP
Second: RRIRDRPPRLPRPRPRPAPQPRP
The “shrunken log2 fold change” value of the first is lower: 0.00165 for the first, 0.983 for the second.

First: RRIRDRPPRLPRPRPRPRFGPRP
Second: RRIRKRPPRLPRPRPRPIYHPRP
The “shrunken log2 fold change” value of the first is higher: 0.206 for the first, -0.472 for the second.

RRIRRRPPRLPRPRPRPVWFPRP and RRIRVRPPRLPRPRPRPWWGPRP are within 0.2 log units of each other in “shrunken log2 fold change” value: 0.0857 for the first, 0.0115 for the second.

First: RRIRMRPPRLPRPRPRPSHYPRP
Second: RRIRERPPRLPRPRPRPTQIPRP
The “shrunken log2 fold change” value of the first is lower: -0.201 for the first, 0.0737 for the second.

First: RRIRGRPPRLPRPRPRPQHRPRP
Second: RRIRYRPPRLPRPRPRPVVIPRP
The “shrunken log2 fold change” value of the first is higher: 0.212 for the first, -0.868 for the second.

First: RRIRTRPPRLPRPRPRPQINPRP
Second: RRIRGRPPRLPRPRPRPTGFPRP
The “shrunken log2 fold change” value of the first is lower: -0.348 for the first, 1.23 for the second.

Compared with RRIRERPPRLPRPRPRPWKFPRP, RRIRFRPPRLPRPRPRPGGAPRP is higher in “shrunken log2 fold change” value: -0.301 for the first, 0.263 for the second.

First: RRIRPRPPRLPRPRPRPLLVPRP
Second: RRIRMRPPRLPRPRPRPERQPRP
The “shrunken log2 fold change” value of the first is lower: 0.1 for the first, 2.84 for the second.

RRIRHRPPRLPRPRPRPEQIPRP and RRIRPRPPRLPRPRPRPDEVPRP are within 0.2 log units of each other in “shrunken log2 fold change” value: 0.0219 for the first, 0.188 for the second.

RRIRSRPPRLPRPRPRPEAVPRP and RRIRDRPPRLPRPRPRPMKQPRP are within 0.2 log units of each other in “shrunken log2 fold change” value: -0.0338 for the first, -0.076 for the second.

RRIRQRPPRLPRPRPRPVQQPRP and RRIRWRPPRLPRPRPRPRAHPRP are within 0.2 log units of each other in “shrunken log2 fold change” value: 0.142 for the first, 0.167 for the second.

Compared with RRIRRRPPRLPRPRPRPYINPRP, RRIRPRPPRLPRPRPRPAAMPRP is higher in “shrunken log2 fold change” value: -0.832 for the first, 0.302 for the second.

Compared with RRIRLRPPRLPRPRPRPPIKPRP, RRIRWRPPRLPRPRPRPCFRPRP is higher in “shrunken log2 fold change” value: -0.179 for the first, 0.021 for the second.

Going from RRIRPRPPRLPRPRPRPEHLPRP to RRIRARPPRLPRPRPRPSMHPRP, the “shrunken log2 fold change” value rises from -0.109 to 0.163.

Compared with RRIRKRPPRLPRPRPRPKNFPRP, RRIRCRPPRLPRPRPRPTHNPRP is higher in “shrunken log2 fold change” value: -0.148 for the first, 0.124 for the second.

First: RRIRIRPPRLPRPRPRPTTFPRP
Second: RRIRWRPPRLPRPRPRPNQLPRP
The “shrunken log2 fold change” value of the first is lower: -0.688 for the first, -0.208 for the second.

Compared with RRIRHRPPRLPRPRPRPQDSPRP, RRIRFRPPRLPRPRPRPTYEPRP is lower in “shrunken log2 fold change” value: -0.00865 for the first, -0.3 for the second.

Going from RRIRMRPPRLPRPRPRPPYSPRP to RRIRGRPPRLPRPRPRPTHWPRP, the “shrunken log2 fold change” value rises from -0.0464 to 0.629.

Going from RRIRFRPPRLPRPRPRPYPVPRP to RRIRIRPPRLPRPRPRPTHWPRP, the “shrunken log2 fold change” value rises from -0.115 to 0.133.

First: RRIRNRPPRLPRPRPRPRFIPRP
Second: RRIRCRPPRLPRPRPRPPCSPRP
The “shrunken log2 fold change” value of the first is lower: -0.533 for the first, -0.315 for the second.

RRIRARPPRLPRPRPRPMELPRP and RRIRVRPPRLPRPRPRPKKRPRP are within 0.2 log units of each other in “shrunken log2 fold change” value: 0.114 for the first, 0.154 for the second.

Compared with RRIRERPPRLPRPRPRPPHNPRP, RRIRFRPPRLPRPRPRPSTSPRP is lower in “shrunken log2 fold change” value: 0.637 for the first, -0.0297 for the second.

RRIRSRPPRLPRPRPRPITWPRP and RRIRGRPPRLPRPRPRPFIQPRP are within 0.2 log units of each other in “shrunken log2 fold change” value: -0.284 for the first, -0.382 for the second.

RRIRSRPPRLPRPRPRPKRFPRP and RRIRVRPPRLPRPRPRPWDNPRP are within 0.2 log units of each other in “shrunken log2 fold change” value: 0.0952 for the first, 0.0145 for the second.

Compared with RRIRKRPPRLPRPRPRPQLVPRP, RRIRYRPPRLPRPRPRPNMTPRP is lower in “shrunken log2 fold change” value: 0.225 for the first, -0.00766 for the second.

First: RRIRMRPPRLPRPRPRPCICPRP
Second: RRIRPRPPRLPRPRPRPHKDPRP
The “shrunken log2 fold change” value of the first is higher: -0.0505 for the first, -0.339 for the second.

RRIRGRPPRLPRPRPRPIWVPRP and RRIRIRPPRLPRPRPRPIPNPRP are within 0.2 log units of each other in “shrunken log2 fold change” value: -0.0275 for the first, -0.0731 for the second.

First: RRIRIRPPRLPRPRPRPFFHPRP
Second: RRIRNRPPRLPRPRPRPVCAPRP
The “shrunken log2 fold change” value of the first is lower: -0.575 for the first, 0.559 for the second.

Compared with RRIRERPPRLPRPRPRPGNTPRP, RRIRVRPPRLPRPRPRPALDPRP is higher in “shrunken log2 fold change” value: -0.089 for the first, 0.357 for the second.

First: RRIRWRPPRLPRPRPRPIEEPRP
Second: RRIRWRPPRLPRPRPRPYCAPRP
The “shrunken log2 fold change” value of the first is higher: 0.0406 for the first, -0.281 for the second.

RRIRNRPPRLPRPRPRPHVKPRP and RRIRSRPPRLPRPRPRPAKYPRP are within 0.2 log units of each other in “shrunken log2 fold change” value: -0.17 for the first, -0.215 for the second.

Compared with RRIRARPPRLPRPRPRPCIRPRP, RRIRGRPPRLPRPRPRPAICPRP is higher in “shrunken log2 fold change” value: -0.365 for the first, 0.555 for the second.

Compared with RRIRSRPPRLPRPRPRPSYLPRP, RRIRRRPPRLPRPRPRPNPLPRP is higher in “shrunken log2 fold change” value: -0.707 for the first, 0.269 for the second.

RRIRFRPPRLPRPRPRPPNFPRP and RRIRKRPPRLPRPRPRPSIGPRP are within 0.2 log units of each other in “shrunken log2 fold change” value: -0.22 for the first, -0.0755 for the second.

Compared with RRIRGRPPRLPRPRPRPTPVPRP, RRIRVRPPRLPRPRPRPVGSPRP is lower in “shrunken log2 fold change” value: 1.07 for the first, 0.289 for the second.

First: RRIRVRPPRLPRPRPRPTHHPRP
Second: RRIRVRPPRLPRPRPRPQSMPRP
The “shrunken log2 fold change” value of the first is higher: 0.586 for the first, 0.229 for the second.

Compared with RRIRGRPPRLPRPRPRPIPWPRP, RRIRLRPPRLPRPRPRPRIPPRP is lower in “shrunken log2 fold change” value: 0.361 for the first, 0.09 for the second.

RRIRLRPPRLPRPRPRPTVMPRP and RRIRNRPPRLPRPRPRPTPEPRP are within 0.2 log units of each other in “shrunken log2 fold change” value: 0.105 for the first, 0.0889 for the second.

Going from RRIRMRPPRLPRPRPRPCSSPRP to RRIRQRPPRLPRPRPRPHWHPRP, the “shrunken log2 fold change” value falls from -0.0756 to -0.465.

Compared with RRIRGRPPRLPRPRPRPSILPRP, RRIRHRPPRLPRPRPRPILSPRP is lower in “shrunken log2 fold change” value: 1.03 for the first, -0.0163 for the second.

Going from RRIRKRPPRLPRPRPRPWCWPRP to RRIRSRPPRLPRPRPRPFLEPRP, the “shrunken log2 fold change” value falls from 0.357 to -0.248.

Going from RRIRARPPRLPRPRPRPDVNPRP to RRIRARPPRLPRPRPRPNRYPRP, the “shrunken log2 fold change” value falls from 0.0462 to -0.191.

Going from RRIRYRPPRLPRPRPRPLIRPRP to RRIRVRPPRLPRPRPRPNVDPRP, the “shrunken log2 fold change” value rises from -0.85 to -0.0826.

RRIRMRPPRLPRPRPRPDWVPRP was tested, and the “shrunken log2 fold change” value was 0.0143.
